Assay results reported in PMC9278865 (Science Advances, 2022).

Target: SARS-CoV-2 RBDwt (residues 319 to 541) (SARS-CoV-2, UniProt P0DTC2 319-541)
Assay: SPR

B1: ACE2_(740) LFMYQY2HA in the IgG3 backbone with a truncated hinge (M80) (Fc fusion)
chain: QSTIEEQAKTFLDKFNHEAEDLFYQSSLASWNYNTNITEENVQNMNNAGDKWSAFLKEQSTFAQYYPLQEIQNLTVKLQLQALQQNGSSVLSEDKSKRLNTILNTMSTIYSTGKVCNPDNPQECLLLEPGLNEIMANSLDYNERLWAWESWRSEVGKQLRPLYEEYVVLKNEMARANHYEDYGDYWRGDYEVNGVDGYDYSRGQLIEDVEHTFEEIKPLYEHLHAYVRAKLMNAYPSYISPIGCLPAHLLGDMWGRFWTNLYSLTVPFGQKPNIDVTDAMVDQAWDAQRIFKEAEKFFVSVGLPNMTYGFWENSMLTDPGNVQKAVCHPTAWDLGKGDFRILMCTKVTMDDFLTAHAEMGAIQYDMAYAAQPFLLRNGANEGFHEAVGEIMSLSAATPKHLKSIGLLSPDFQEDNETEINFLLKQALTIVGTLPFTYMLEKWRWMVFKGEIPKDQWMKKWWEMKREIVGVVEPVPHDETYCDPASLFHVSNDYSFIRYYTRTLYQFQFQEALCQAAKHEGPLHKCDISNSTEAGQKLFNMLRLGKSEPWTLALENVVGAKNMNVRPLLNYFEPLFTWLKDQNKNSFVGWSTDWSPYADQSIKVRISLKSALGDKAYEWNDNEMYLFRSSVAYAMRQYFLKVKNQMILFGEEDVRVANLKPRISFNFFVTAPKNVSDIIPRTEVEKAIRMSRSRINDAFRLNDNSLEFLGIQPTLGPPNQPPVS
- binding result: binds
